In patent US20070123452A1, “Method of selecting novel immunosuppressant” (Astellas Pharma Inc., priority 2002, published 2007):

B1: HDAC4 dominant negative variants (H802K, H803L): HDAC4 variant with H802K and H803L mutations, amino acid sequence SEQ ID NO:4, expressed from plasmid (protein)
chain: MSSQSHPDGLSGRDQPVELLNPARVNHMPSTVDVATALPLQVAPSAVPMDLRLDHQFSLPVAEPALREQQLQQELLALKQKQQIQRQILIAEFQRQHEQLSRQHEAQLHEHIKQQQEMLAMKHQQELLEHQRKLERHRQEQELEKQHREQKLQQLKNKEKGKESAVASTEVKMKLQEFVLNKKKALAHRNLNHCISSDPRYWYGKTQHSSLDQSSPPQSGVSTSYNHPVLGMYDAKDDFPLRKTASEPNLKLRSRLKQKVAERRSSPLLRRKDGPVVTALKKRPLDVTDSACSSAPGSGPSSPNNSSGSVSAENGIAPAVPSIPAETSLAHRLVAREGSAAPLPLYTSPSLPNITLGLPATGPSAGTAGQQDTERLTLPALQQRLSLFPGTHLTPYLSTSPLERDGGAAHSPLLQHMVLLEQPPAQAPLVTGLGALPLHAQSLVGADRVSPSIHKLRQHRPLGRTQSAPLPQNAQALQHLVIQQQHQQFLEKHKQQFQQQQLQMNKIIPKPSEPARQPESHPEETEEELREHQALLDEPYLDRLPGQKEAHAQAGVQVKQEPIESDEEEAEPPREVEPGQRQPSEQELLFRQQALLLEQQRIHQLRNYQASMEAAGIPVSFGGHRPLSRAQSSPASATFPVSVQEPPTKPRFTTGLVYDTLMLKHQCTCGSSSSHPEHAGRIQSIWSRLQETGLRGKCECIRGRKATLEELQTVHSEAHTLLYGTNPLNRQKLDSKKLLGSLASVFVRLPCGGVGVDSDTIWNEVHSAGAARLAVGCVVELVFKVATGELKNGFAVVRPPGKLAEESTPMGFCYFNSVAVAAKLLQQRLSVSKILIVDWDVHHGNGTQQAFYSDPSVLYMSLHRYDDGNFFPGSGAPDEVGTGPGVGFNVNMAFTGGLDPPMGDAEYLAAFRTVVMPIASEFAPDVVLVSSGFDAVEGHPTPLGGYNLSARCFGYLTKQLMGLAGGRIVLALEGGHDLTAICDASEACVSALLGNELDPLPEKVLQQRPNANAVRSMEKVMEIHSKYWRCLQRTTSTAGRSLIEAQTCENEEAETVTAMASLSVGVKPAEKRPDEEPMEEEPPL
modifications: Dominant negative mutant (H802K, H803L) of human histone deacetylase-4 (HDAC4) gene
B2: GAL4-N-CoR (RD3) fusion protein (pBIND-N-CoR(RD3)) (other, not shown: large carriers)
chain: EVLQPAPHQVITNLPEGVRLPTTRPTRPPPPLIPSSKTTVASEKPSFIMGGSISQGTPGTYLTSHNQASYTQETPKPSVGSISLGLPRQQESAKSATLPYIKQEEFSPRSQNSQPEGLLVRAQHEGVVRGTAGAIQEGSITRGTPTSKISVESIPSLRGSITQGTPALPQTGIPTEALVKGSISRMPIEDSSPEKGREEAASKGHVIYEGKSGHILSYDNIKNAREGTRSPRTAHEISLKRSYESVEGNIKQGMSMRESPVSAPLEGLICRALPRGSPHSDLKERTVLSGSIMQGTPRATTESFEDGLKYPKQIKRESPPIRAFEGAITKGKPYDGITTIKEMGRSIHEIPRQDILTQESRKTPEVVQSTRPIIEGSISQGTPIKFDNNSGQSAIKHNVKSLITGPSKLSRGMPPLEIVPENIKVVERGKYEDVKAGETVRSRHTSVVSSGPSVLRSTLHEAPKAQLSPGIYDDTSARRTPVSYQN
notes: The cloned fragment carried the variation L1014V (numbered on full-length N-CoR); also called pBND-N-CoR (RD3)

Legend:
histone = assay: HDAC activity with [3H]-labeled acetylated histone as a substrate; format: biochemical, human; conditions: expressed in 293T cells, crudely purified; compared to wild-type HDAC4
Description: 7 μg of a plasmid for the expression of wild-type HDAC4 and HDAC4 dominant negative variants (H802K, H803L, H863L) was transfected to 293T cells by the calcium phosphate method; 48 hours later, whole cell lysate (cells were disrupted in 25 mM Tris, pH 7.4, 150 mM NaCl, 1 mM CaCl2, 1% Triton X-100, and cell debris was removed by centrifugation) was crudely purified using an anti-Flag antibody column (SIGMA, anti-Flag M2-agarose) (washed with TBS, then eluted with 0.1M Glysine-HCl, pH 3.5), and used for the measurement of HDAC activity. The reaction substrate used was a [^3H]-labeled acetylated histone prepared by cultivating Jurkat cells (2×10^8 cells) in 40 mL of an RPMI (SIGMA) medium containing 300 MBq [^3H] sodium acetate (NENTM Life Science Products, Inc.) for 2 hours, disrupting the cells in Lysis buffer, pH 6.5 (10 mM Tris-HCl, 50 mM Sodium Hydrogen sulfate, 1% Triton X-100, 10 mM MgCl2-6H2O, 8.6% Sucrose), washing the cells with Wash buffer (10 mM Tris-HCl, 13 mM EDTA), and then adding 0.4N H2SO4.

[1] = tested on: GATA-1 transcription (human GATA-1 promoter); assay: GATA-1 reporter gene assay in HEL cells; format: cell-based; conditions: 10 μg expression plasmid
Description: Using 15 μg of pGL3-HSI-IE Pro and 10 μg of a plasmid for the expression of various HDACs or HDAC variants, 8.75×10^6 HEL cells (accession number JCRB0062, JCRB) were transformed by the electroporation method (BIO-RAD, Gene Pulser II, voltage 1750 V, charge 10 μF, 365 μL). After transformation, 2 mL of 10% FBS RPMI 1640 was added, and this mixture was dispensed to a 96-well white plate in a ratio of 50 μL/well. After cultivation under conditions of 37° C., 5% CO2 and saturated humidity for 3 hours, 10% FBS RPMI 1640 medium was added at 50 μL/well. After cultivation under conditions of 37° C., 5% CO2 and saturated humidity for 8 hours, luciferase activity in cells were measured according to the manual of the Bright-Glo Luciferase Assay System, and GATA-1 transcriptional activity was measured using a multi-label counter.
(§1) A mixture of four kinds of HDAC4-targeted siRNA, i.e., siGENE HDAC4 SMARTpool (manufactured by Dharmacon Inc., marketed by B-Bridge international Inc., code number M-003497-00-05), or Non-specific Control Duplex IX (47% GC content) (manufactured by Dharmacon Inc., marketed by B-Bride international Inc., code number D-001206-09-20), and pGL3 IL2 Pro43 were transfected to Jurkat cells by the electroporation method using the same conditions as those mentioned above, and IL-2 transcriptional activity was measured. […]

[2] = tested on: IL-2 transcription (human IL-2 promoter); assay: IL-2 reporter gene assay in Jurkat cells; format: cell-based
Description: To 1 μg of the plasmid pGL3 IL2 Pro43, which has a human IL-2 promoter sequence (the −674 to +54 region in the vicinity of the transcription initiation site) upstream of the firefly luciferase gene, and 6 μg of pRL-TK (Promega), the plasmids for the expression of wild-type HDAC4 or each of HDAC4 dominant negative variants (H802K, H803L, H863L) prepared in Example 3 was mixed in various ratios (1, 3 and 10 μg), and 1×10^7 Jurkat cells (ATCC, TIB-152) were transformed by the electroporation method (BIO-RAD, Gene Pulser II, voltage 300 V, charge 975 μF, 400 μL).
After transformation, 2.5 mL of RPMI 1640 containing 10% FBS (MOREGATE) (10% FBS RPMI 1640) was added, and this mixture was dispensed to a 96-well white plate in a ratio of 50 μL/well. After cultivation under conditions of 37° C., 5% CO2 and saturated humidity for 10 hours, a liquid mixture of Phorbol 12-Myristate 13-Acetate (PMA, SIGMA), Ionomycin (SIGMA) and Anti-CD28 antibody (Pharmingen) in 10% FBS RPMI 1640 was added at 50 μL/well (the final concentrations were 50 ng/mL, 1 μg/mL and 75 ng/mL, respectively) to stimulate the Jurkat cells. After cultivation under conditions of 37° C., 5% CO2 and saturated humidity for 12 hours, luciferase activity in the cells was measured according to the manual of the Bright-Glo Luciferase Assay System (Promega) using a multi-label counter (1420 MULTILABEL COUNTER ARVO SX, WALLAC).
1×10^7 Jurkat cells (ATCC, TIB-152) were transformed with 10 μg of a plasmid for the expression of various HDACs or HDAC variants by the electroporation method (BIO-RAD, Gene Pulser II, voltage 300 V, charge 975 μF, 400 μL). […] After cultivation under conditions of 37° C., 5% CO2 and saturated humidity for 12 hours, luciferase activity in cells were measured according to the manual of the Bright-Glo Luciferase Assay System (Promega), and IL-2 transcriptional activity was measured using a multi-label counter (1420 MULTILABEL COUNTER ARVO SX, WALLAC).
as §1, with “measured. Likewise, siGENE HDAC4 SMARTpool or Non-specific Control Duplex IX, and pGL3-HSI-IE Pro were transfected to HEL cells, and GATA-1 transcriptional activity was measured.” for “measured.”

[3] = molecular target: T1, HDAC4 (H863L)-VP16 fusion protein (pACT-HDAC4 (H863L)) (human, UniProt P56524 1-1084); assay: mammalian two-hybrid (CheckMate), pG5-Luc luciferase in Jurkat cells
T1 construct: also called HDAC4 dominant negative variant (H863L)

[4] = molecular target: HDAC4-VP16 fusion protein (pACT-HDAC4) (human, UniProt P56524 1-1084); assay: as above

Molecule | HDAC activity with histone as a substrate (histone) | GATA-1 transcriptional activity (luciferase) [1] | IL-2 transcriptional activity (luciferase) ([2]; Jurkat cells stimulated with PMA, Ionomycin, Anti-CD28 antibody, expression plasmid 1, 3 and 10 μg) | IL-2 transcriptional activity (luciferase) ([2]; Jurkat cells, 10 μg expression plasmid, compared with HDAC1 and HDAC3 variants) | binding result [3] | binding result [4]
B1 | decreased HDAC activity compared to wild-type HDAC4 | GATA-1 transcription suppression was not observed | IL-2 transcription suppression depending on the expression level | IL-2 transcription suppression was observed | – | –
B2 | – | – | – | – | no binding | binds
